# Laboratory results published in publication PMC4689385.
# Molecular target: KillerOrange
# Test: crystal structure; KillerOrange; hanging drop vapor diffusion at 20°C; ~22 mg/ml protein in 20 mM Tris pH 8.0, 200 mM NaCl; reservoir 0.02M Na acetate pH 5.0, 1% gamma-PGA, 3% PEG 4K; data at 100 K
substance,measurement,value
KillerOrange,stoichiometry N,2
